This note sets out measurements from patent publication US20230068487A1.

The test deals with commercial recombinant neutrophil elastase (NE) (UniProt P08246). Description: cell-based or functional assay.
UniProt P08246, sequence (P08246 30-247 limits assumed): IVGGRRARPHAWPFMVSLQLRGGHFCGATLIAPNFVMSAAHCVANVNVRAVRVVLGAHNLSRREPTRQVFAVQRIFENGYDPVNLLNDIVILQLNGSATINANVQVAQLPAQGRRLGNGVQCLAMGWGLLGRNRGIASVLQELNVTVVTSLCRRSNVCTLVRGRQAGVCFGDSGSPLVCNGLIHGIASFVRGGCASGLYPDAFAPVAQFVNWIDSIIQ

In the case of “wild type recombinant human alpha-1-antitrypsin (WT-rhAAT) (from UniProt P01009 25-418)”, the reduction of NE activity (elastase inhibitory activity, chromogenic substrate) at 0.65 µM WT-rhAAT worked out at 75%.
